Consider one molecule from patent US20170152228A1, “SCREENING METHODS FOR THE BINDING AFFINITY OF CHEMICAL […] TO BIOLOGICAL MOLECULES AND NEDD4-1 […] THE SCREENING METHODS” (Northwestern University, published 2017).

In this experiment the target is ubiquitin (Homo sapiens (Human), UniProt P0CG48). The experiment is described as follows: not stated how the value was obtained. It is named in the context of the fluorescence polarization assay. On the technique in general: In fluorescence polarisation assays a small probe gives low polarisation when free and higher when bound to something large.

B1: NEDD4-1 HECT domain (enzyme)
chain: GPLGSRDYKRKYEFFRRKLKKQNDIPNKFEMKLRRATVLEDSYRRIMGVKRADFLKARLWIEFDGEKGLDYGGVAREWFFLISKEMFNPYYGLFEYSATDNYTLQINPNSGLCNEDHLSYFKFIGRVAGMAVYHGKLLDGFFIRPFYKMMLHKPITLHDMESVDSEYYNSLRWILENDPTELDLRFIIDEELFGQTHQHELKNGGSEIVVTNKNKKEYIYLVIQWRFVNRIQKQMAAFKEGFFELIPQDLIKIFDENELELLMCGLGDVDVNDWREHTKYKNGYSANHQVIQWFWKAVLMMDSEKRIRLLQFVTGTSRVPMNGFAELYGSNGPQSFTVEQWGTPEKLPRAHTCFNRLDLPPYESFEELWDKLQMAIENTQGFDGVD
B1 had a Kd of 11 µM.

A word on the Kd: it is the equilibrium constant for the complex coming apart. Read a high Kd as a looser complex.
